In PMC10716038, “Talin and kindlin use integrin tail allostery and direct binding to activate integrins” (Nature Structural & Molecular Biology, 2023):

B1: talin-1 head domain (THD1) [not stated] / ATTO 488-labelled β3-CT (488–β3-CT) [modified: ATTO 488 at the N terminus; ATTO 488 at the N terminus] [not stated] (parent)
chain 1: MVALSLKISIGNVVKTMQFEPSTMVYDACRMIRERIPEALAGPPNDFGLFLSDDDPKKGIWLEAGKALDYYMLRNGDTMEYRKKQRPLKIRMLDGTVKTIMVDDSKTVTDMLMTICARIGITNHDEYSLVRELMEEKKDEGTGTLRKDKTLLRDEKKMEKLKQKLHTDDELNWLDHGRTLREQGVEEHETLLLRRKFFYSDQNVDSRDPVQLNLLYVQARDDILNGSHPVSFDKACEFAGFQCQIQFGPHNEQKHKAGFLDLKDFLPKEYVKQKGERKIFQAHKNCGQMSEIEAKVRYVKLARSLKTYGVSFFLVKEKMKGKNKLVPRLLGITKECVMRVDEKTKEVIQEWSLTNIKRWAASPKSFTLDFGDYQDGYYSVQTTEGEQIAQLIAGYIDIILKKKKS
chain 2: KLLITIHDRKEFAKFEEERARAKWDTANNPLYKEATSTFTNITYRGT

Variants of: B1
Assay: MST
Settings: with ATTO 488-labelled β3-CT (488–β3-CT) [modified: ATTO 488 at the N terminus, 30-40 µM KIND2, n = 2, read off a plot
With chain 1 K403A the screen value was 0.5.
chain 1 K403E gave a screen value of 0.57.
chain 1 Y395A gave a screen value of 0.68.
With chain 1 K402A K403A the screen value was 0.7.
chain 1 I398A gave a screen value of 0.65.
Work on chain 1 I399A yielded a screen value of 0.93.
chain 1 K402A showed a screen value of 0.45.
For chain 1 I396A, the screen value was 1.
chain 1 K404A was tested, and the screen value was 0.75.
With chain 1 K401A the screen value was 0.55.
chain 1 L400A gave a screen value of 1.1.
